Positions count from the first letter of the chain named.
T1: Ala mutant having 3-amino acid substitution, SEQ ID NO: 46
T1 peptide: EENMDDAAAQDEMEIGY

T2: Ala mutant of TA0096, SEQ ID NO: 30
T2 peptide: EENADDQWMQDEMEIGY

T3: Ala mutant of TA0096, SEQ ID NO: 43
T3 peptide: EENMDDQWMQDEMEIGA

T4: Ala mutant of TA0096, SEQ ID NO: 35
T4 peptide: EENMDDQWAQDEMEIGY

T5: Ala mutant of TA0096, SEQ ID NO: 32
T5 peptide: EENMDAQWMQDEMEIGY

B1: A11 (antibody, V domains shown)
VH: AVTLDESGGGLQTPGGALSLVCKASGFDFSSYGMGWMRQAPGKGLEYVAAIRNDGSWTGYGAAVKGHATISRDNGQSTVRLQLNNLRAEDTGTYYCAKTTGSRGGSIDAWGHGTEVIVS
VL: ASTQPSSVSANLGGTVEITCSGGGRYYYGWYQQKSPGSAPVTVIYANDKRPSDIPSRFSGSKSGSTGTLTITGVQAEDEAVYFCGSAETSSYVFGAGTTLTVL
notes: Chicken variable regions in a mouse chimeric antibody (IgG1); also called anti-PAD4 antibody A11
B2: G8 (antibody, V domains shown)
VH: B1 VH with D28T, S31T, G33A, H67R, S71L, N84S, T99Y, R103S, D108G
VL: ASTQPSSVSANLGGTVEITCSGGNRNYYYGWYQQKSPGSAPVTLIYANDKRPSNIPSRFSGSKSGSTGTLTITGVQAEDEAVYFCGTADTGKYVFGAGTTLTVL
notes: Chicken variable regions in a mouse chimeric antibody (IgG1); also called anti-PAD4 antibody G8
B3: H7 (antibody, V domains shown)
VH: B1 VH with D28T, S31T, G33A, H67R, S71L, N84S, T99Y, R103S, D108G
VL: ASTQPSSVSANPGGTVEITCSGGSGRYYYGWYQQKSPGSAPVTVIYSSTHRPSNIPSRFSGSKSGSTATLTITGVQAEDEAVYFCGTADSSSYVFGAGTTLTVL
notes: Chicken variable regions in a mouse chimeric antibody (IgG1); also called anti-PAD4 antibody H7
B4: G6 (antibody, V domains shown)
VH: B1 VH with D28T, G35E, M37V, H67R, N74D, V79L, G92A, R103S
VL: B1 VL with G14E, E17K, R25N, V43L, D53N, S86T, E88D, S90G, S91K
notes: Chicken variable regions in a mouse chimeric antibody (IgG1); also called anti-PAD4 antibody G6
B5: G9 (antibody, V domains shown)
VH: B1 VH with D28T, S31T, G33A, H67R, S71L, N84S, T99Y, R103S, D108G
VL: B1 VL with S2V, S6A
notes: Chicken variable regions in a mouse chimeric antibody (IgG1); also called anti-PAD4 antibody G9
B6: E9 (antibody, V domains shown)
VH: B1 VH with A17T, A24G, D28T, A62S, H67R, G92A, T100S, R103S, I107V
VL: B1 VL
notes: Chicken variable regions in a mouse chimeric antibody (IgG1); also called anti-PAD4 antibody E9

Experiments:
[1] = target: full-length recombinant human or mouse PAD4 (species used for Table 7 and FIG. 7 not stated); test: cell-based or functional assay
[2] = target: T6, full-length recombinant human PAD4 (human, UniProt Q9UM07 1-663); test: ELISA, coated human PAD4; antibody 0.0009766 ug/mL
T6 construct: Full-length recombinant; also called peptidylarginine deiminase 4

[3] = target: T7, full-length recombinant mouse PAD4 (mouse, UniProt Q9Z183 1-666); test: ELISA, coated mouse PAD4; antibody 0.015625 ug/mL
T7 construct: mature; Full-length recombinant

[4] = target: T6, full-length recombinant human PAD4; test: SPR (Biacore T200), antibody captured, human PAD4 analyte
Description: Biacore (GE Healthcare, Biacore T200) was carried out to evaluate the affinity of A11 etc., toward human PAD4. A Mouse Antibody Capture kit (GE Healthcare, BR-1008-38) was used for the affinity assay. Specifically, in accordance with the standard protocol provided by the manufacture, NHS/EDC was used and an amine coupling method, in which a free carboxyl group is fixed on a surface of a CM5 chip, was used to immobilize a rabbit anti-mouse polyclonal antibody on the surface of a CM5 chip. Next, A11 etc., were each captured by the rabbit anti-mouse polyclonal antibody. L207 was likewise captured. Then, human PAD4 at each concentration was subjected to Biacore T200 measurement to create a kinetic sensorgram.

[5] = target: T7, full-length recombinant mouse PAD4; test: ELISA, coated mouse PAD4; antibody 0.0039063 ug/mL
[6] = target: T6, full-length recombinant human PAD4; test: ELISA, coated human PAD4; antibody 0.0039063 ug/mL
[7] = target: T1, Ala mutant having 3-amino acid …; test: ELISA, 3-amino acid Ala mutants
Description: (§1) The epitope of each of A11 etc. was identified by alanine scan. Specifically, the following procedures (i) to (iii) were carried out. (i) Each amino acid residue of the antigen sequence (SEQ ID NO: 1) was replaced by another amino acid one by one, and 17 different Ala mutants (SEQ ID Nos: 27 to 43) were synthesized. (ii) The reactivity of each of the Ala mutants toward a test antibody was evaluated (ELISA).
Note that, as additional experiments, 6 different Ala mutants having 3-amino acid substitution (SEQ ID NOs: 44 to 49) were likewise examined in the experiments.

[8] = target: T6, full-length recombinant human PAD4; test: ELISA, coated human PAD4; antibody 0.25 ug/mL
[9] = target: T1, Ala mutant having 3-amino acid …; test: ELISA, coated peptide
[10] = target: T2, Ala mutant of TA0096, SEQ ID NO: 30; test: ELISA, coated peptide
[11] = target: T3, Ala mutant of TA0096, SEQ ID NO: 43; test: ELISA, coated peptide
[12] = target: T7, full-length recombinant mouse PAD4; test: ELISA, coated mouse PAD4; antibody 6.104E-05 ug/mL
[13] = target: T4, Ala mutant of TA0096, SEQ ID NO: 35; test: ELISA, alanine scan (position 348)
Description: as §1
(§2) The “96 pAb” designated in the table refers to antiserum as obtained by immunizing a chicken with TA0096 (SEQ ID NO: 1). The 96 pAb, which is an anti-PAD4 polyclonal antibody, can substantially keep the affinity toward PAD4 even if any of single amino acids of PAD4 is replaced.

[14] = target: T6, full-length recombinant human PAD4; test: ELISA, coated human PAD4; antibody 1 ug/mL
[15] = target: T7, full-length recombinant mouse PAD4; test: ELISA, coated mouse PAD4; antibody 0.25 ug/mL
[16] = target: T5, Ala mutant of TA0096, SEQ ID NO: 32; test: ELISA, alanine scan (position 345)
Description: as §1, §2

[17] = target: T5, Ala mutant of TA0096, SEQ ID NO: 32; test: ELISA, coated peptide

T7 sequence (Q9Z183 whole entry): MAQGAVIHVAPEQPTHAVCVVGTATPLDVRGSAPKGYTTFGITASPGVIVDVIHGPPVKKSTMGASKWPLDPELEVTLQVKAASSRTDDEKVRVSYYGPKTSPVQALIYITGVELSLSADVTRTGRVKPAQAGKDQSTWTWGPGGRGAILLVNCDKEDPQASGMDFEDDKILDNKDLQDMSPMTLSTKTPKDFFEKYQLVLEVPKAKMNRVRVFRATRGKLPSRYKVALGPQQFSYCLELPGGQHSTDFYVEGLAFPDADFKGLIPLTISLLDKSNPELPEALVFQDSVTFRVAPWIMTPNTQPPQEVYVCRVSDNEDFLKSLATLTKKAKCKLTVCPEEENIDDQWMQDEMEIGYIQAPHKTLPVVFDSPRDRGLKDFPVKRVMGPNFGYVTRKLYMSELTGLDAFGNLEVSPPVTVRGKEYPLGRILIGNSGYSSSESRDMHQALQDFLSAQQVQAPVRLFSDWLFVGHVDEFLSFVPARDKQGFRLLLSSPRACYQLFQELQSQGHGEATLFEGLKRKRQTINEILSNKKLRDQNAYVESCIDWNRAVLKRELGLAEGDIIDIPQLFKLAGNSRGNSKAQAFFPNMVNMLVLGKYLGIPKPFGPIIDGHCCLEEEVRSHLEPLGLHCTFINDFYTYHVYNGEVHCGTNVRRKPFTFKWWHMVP
T6 sequence (Q9UM07 whole entry): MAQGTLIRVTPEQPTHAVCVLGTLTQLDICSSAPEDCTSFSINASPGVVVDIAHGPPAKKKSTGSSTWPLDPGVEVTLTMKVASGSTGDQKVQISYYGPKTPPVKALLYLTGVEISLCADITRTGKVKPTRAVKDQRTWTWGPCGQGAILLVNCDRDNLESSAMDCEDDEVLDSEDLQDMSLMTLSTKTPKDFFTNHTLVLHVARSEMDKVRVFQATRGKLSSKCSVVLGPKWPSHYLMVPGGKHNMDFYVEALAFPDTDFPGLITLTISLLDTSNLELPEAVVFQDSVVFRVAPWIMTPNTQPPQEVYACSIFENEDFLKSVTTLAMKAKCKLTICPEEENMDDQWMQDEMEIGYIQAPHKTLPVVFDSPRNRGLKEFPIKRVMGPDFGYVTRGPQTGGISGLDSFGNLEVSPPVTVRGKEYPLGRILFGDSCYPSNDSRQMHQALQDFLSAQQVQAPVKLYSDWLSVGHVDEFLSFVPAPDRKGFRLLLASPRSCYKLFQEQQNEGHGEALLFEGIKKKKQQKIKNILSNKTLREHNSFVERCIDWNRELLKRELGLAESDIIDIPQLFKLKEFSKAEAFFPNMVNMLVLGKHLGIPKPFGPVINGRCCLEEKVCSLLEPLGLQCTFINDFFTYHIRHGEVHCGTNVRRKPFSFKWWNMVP

Row | Binder | Relative citrullination activity [1] | OD 490/630 nm [2] | OD 490/630 nm [3] | Kd [4] | koff [4] | kon [4] | OD 490/630 nm [5] | OD 490/630 nm [6] | binding result [7] | OD 490/630 nm [8] | OD 490/630 nm [9] | OD 490/630 nm [10] | OD 490/630 nm [11] | OD 490/630 nm [12] | binding result [13] | OD 490/630 nm [14] | OD 490/630 nm [15] | binding result [16] | OD 490/630 nm [17]
1 | B1 | 64 relative to PBS = 100 | 0.511 | 2.02 | 4.37 nM | 0.000566 s⁻¹ | 129000 M⁻¹ s⁻¹ | 1.07 | 1.31 | no binding | 2.11 | 0.043 | 2.03 | 1.92 | 0.045 | no binding | 2.15 | 2.25 |  | 
2 | B2 | 63 relative to PBS = 100 | 0.544 | 2.25 | 2.34 nM | 0.000243 s⁻¹ | 104000 M⁻¹ s⁻¹ | 1.42 | 1.34 |  | 2.1 |  | 1.93 | 1.92 | 0.122 |  | 2.12 | 2.25 | no binding | 0.083
3 | B3 | 35 relative to PBS = 100 | 0.537 | 2.26 | 7.56 nM | 0.000791 s⁻¹ | 105000 M⁻¹ s⁻¹ | 1.41 | 1.35 | no binding | 2.11 | 0.044 | 1.95 | 1.87 | 0.103 | no binding | 2.11 | 2.31 | no binding | 0.033
4 | B4 | 69 relative to PBS = 100 | 0.437 | 1.35 | 8.74 nM | 0.000389 s⁻¹ | 44500 M⁻¹ s⁻¹ | 0.55 | 1.16 | no binding | 2.07 | 0.083 | 1.92 | 1.87 | 0.044 | no binding | 2.11 | 2.27 | no binding | 0.035
5 | B5 | 68 relative to PBS = 100 | 0.534 | 2.21 | 3.16 nM | 0.000284 s⁻¹ | 90000 M⁻¹ s⁻¹ | 1.39 | 1.36 | no binding | 2.08 | 0.131 | 2.03 | 1.88 | 0.079 |  | 2.1 | 2.25 | no binding | 0.039
6 | B6 | 59 relative to PBS = 100 | 0.489 | 1.86 | 5.52 nM | 0.000837 s⁻¹ | 152000 M⁻¹ s⁻¹ | 0.956 | 1.36 | no binding | 2.08 | 0.027 | 1.91 | 1.88 | 0.051 | no binding | 2.11 | 2.23 |  | 

— patent US20180044434A1 (PUBLIC UNIVERSITY CORPORATION YOKOHAMA CITY UNIVERSITY, published 2018)
